Results on one substance are retold here after article PMC8053098.

This assay has as its target Escherichia coli MnmA, as-purified (aerobically purified, tag removed) (Escherichia coli) (UniProt P25745). Briefly: SEC-MALS. (In general: Size exclusion chromatography separates by hydrodynamic size, large species first.)

“Escherichia coli MnmA, as-purified (aerobically purified, tag removed) (from UniProt P25745 1-368) (enzyme)”: the stoichiometry N (commonly a count of units in the complex or per binding partner) is 2.
